Measured values: publication PMC3800195 (Molecular microbiology, 2010)

Molecular target: the molecule itself
Experiment: crystal structure

B1: IsdI (enzyme, Staphylococcus aureus)
chain: MFMAENRLQLQKGSAEETIERFYNRQGIETIEGFQQMFVTKTLNTEDTDEVKILTIWESEDSFNNWLNSDVFKEAHKNVRLKSDDDGQQSPILSNKVFKYDIGYHYQK
binding result: binds
